# Assay results taken from patent US9580464B2, “Anti-inflammatory proteins and peptides and methods of preparation and use thereof” (ManukaMed Limited, priority 2012, dated 2017).
# Target: Cathepsin B from bovine spleen (Bos taurus, UniProt P07688)
# Test: Assay for Cathepsin B activity / inhibition (Z-Lys-pNP substrate, absorbance 330 nm)
# Format: biochemical
# [1] = Table 6, MRJP1 derived synthetic peptides, MGO-modified
# [2] = Table 6, MRJP1 derived synthetic peptides, unmodified
# [3] = Table 9, additional synthetic peptides, MGO-modified
# [4] = Table 9, additional synthetic peptides, unmodified
# [5] = Table 3, peptides from C-terminus of MRJP3, 2 mM MGO-modified peptide
# [6] = Table 3, peptides from C-terminus of MRJP3, 2 mM unmodified peptide
# [7] = Table 8, MRJP5 derived synthetic peptides, MGO-modified
# [8] = Table 8, MRJP5 derived synthetic peptides, unmodified
# [9] = Table 1, peptides from C-terminus of MRJP1, 2 mM MGO-modified peptide
# [10] = Table 1, peptides from C-terminus of MRJP1, 2 mM unmodified peptide
substance,measurement,setting,value
Ac-YINR-OH [MRJP1 derived synthetic peptide],Cathepsin B remaining activity (% of control),[1],99.05 ± 7.78
same,Cathepsin B remaining activity (% of control),[2],93.14 ± 2.42
"Ac-LIR-NH2 (Ac-Leu-Ile-Arg-NH2) [synthetic peptide derived from MRJP2, 4 (see Leu408), amidated C-terminus]",Cathepsin B remaining activity (% of control),[3],72.56
same,Cathepsin B remaining activity (% of control),[4],65.39 ± 2.75
Ac-SSKS-OH,Cathepsin B remaining activity (% of control),[5],107.49 ± 4.29
same,Cathepsin B remaining activity (% of control),[6],118.71 ± 9.09
H-MHR-OH (H-Met-His-Arg-OH) [MRJP5 derived synthetic peptide],Cathepsin B remaining activity (% of control),[7],80.66 ± 6.19
same,Cathepsin B remaining activity (% of control),[8],96.77 ± 9.26
Ac-MDR-OH (Ac-Met-Asp-Arg-OH) [MRJP5 derived synthetic peptide],Cathepsin B remaining activity (% of control),[7],88.56 ± 2.14
same,Cathepsin B remaining activity (% of control),[8],107.34 ± 1.46
"Ac-LVK-NH2 (Ac-Leu-Val-Lys-NH2) [synthetic peptide derived from MRJP3 (see Leu170), amidated C-terminus]",Cathepsin B remaining activity (% of control),[3],80.03
same,Cathepsin B remaining activity (% of control),[4],92.71 ± 7.78
"Ac-LLK-OH (Ac-Leu-Leu-Lys-OH) [synthetic peptide derived from MRJP1, 2, 4]",Cathepsin B remaining activity (% of control),[3],147.60
same,Cathepsin B remaining activity (% of control),[4],141.56 ± 13.90
H-FDR-OH (H-Phe-Asp-Arg-OH) [MRJP1 derived synthetic peptide],Cathepsin B remaining activity (% of control),[1],71.18 ± 2.22
same,Cathepsin B remaining activity (% of control),[2],174.56 ± 11.96
Ac-SKLH-OH [synthetic peptide derived from the C-terminus of MRJP3],Cathepsin B remaining activity (% of control),[5],67.57 ± 1.73
same,Cathepsin B remaining activity (% of control),[6],146.35 ± 2.91
H-TDK-OH (H-Thr-Asp-Lys-OH) [MRJP5 derived synthetic peptide],Cathepsin B remaining activity (% of control),[7],87.53 ± 3.26
same,Cathepsin B remaining activity (% of control),[8],103.18 ± 4.50
Ac-LVK-OH (Ac-Leu-Val-Lys-OH) [synthetic peptide derived from MRJP3 (see Leu170)],Cathepsin B remaining activity (% of control),[3],80.84
same,Cathepsin B remaining activity (% of control),[4],143.92 ± 3.15
H-CDR-OH (H-Cys-Asp-Arg-OH) [MRJP1 derived synthetic peptide],Cathepsin B remaining activity (% of control),[1],96.01 ± 6.45
same,Cathepsin B remaining activity (% of control),[2],165.10 ± 0.38
Ac-FDR-OH (Ac-Phe-Asp-Arg-OH) [MRJP1 derived synthetic peptide],Cathepsin B remaining activity (% of control),[1],44.78 ± 1.54
same,Cathepsin B remaining activity (% of control),[2],85.57 ± 3.51
Ac-LQK-OH (Ac-Leu-Gln-Lys-OH) [MRJP5 derived synthetic peptide],Cathepsin B remaining activity (% of control),[7],90.15 ± 1.52
same,Cathepsin B remaining activity (% of control),[8],102.05 ± 10.32
Ac-IDR-OH (Ac-Ile-Asp-Arg-OH) [MRJP5 derived synthetic peptide],Cathepsin B remaining activity (% of control),[7],81.75 ± 3.26
same,Cathepsin B remaining activity (% of control),[8],93.46 ± 12.24
H-FTK-OH (H-Phe-Thr-Lys-OH) [MRJP1 derived synthetic peptide],Cathepsin B remaining activity (% of control),[1],76.59 ± 2.24
same,Cathepsin B remaining activity (% of control),[2],147.63 ± 0.70
H-MQK-OH (H-Met-Gln-Lys-OH) [MRJP1 derived synthetic peptide],Cathepsin B remaining activity (% of control),[1],99.48 ± 2.95
same,Cathepsin B remaining activity (% of control),[2],127.00 ± 0.93
Ac-HNIR-OH [MRJP1 derived synthetic peptide],Cathepsin B remaining activity (% of control),[1],106.82 ± 3.02
same,Cathepsin B remaining activity (% of control),[2],171.58 ± 11.29
Ac-MQK-OH (Ac-Met-Gln-Lys-OH) [MRJP1 derived synthetic peptide],Cathepsin B remaining activity (% of control),[1],69.15 ± 4.87
same,Cathepsin B remaining activity (% of control),[2],121.24 ± 3.57
Ac-MDK-OH (Ac-Met-Asp-Lys-OH) [MRJP5 derived synthetic peptide],Cathepsin B remaining activity (% of control),[7],99.38 ± 1.63
same,Cathepsin B remaining activity (% of control),[8],109.67 ± 3.13
Ac-TNR-OH (Ac-Thr-Asn-Arg-OH) [MRJP5 derived synthetic peptide],Cathepsin B remaining activity (% of control),[7],91.72 ± 0.84
same,Cathepsin B remaining activity (% of control),[8],96.48 ± 2.03
Ac-KISI-OH [synthetic peptide derived from the C-terminus of MRJP1],Cathepsin B remaining activity (% of control),[9],92.82 ± 5.44
same,Cathepsin B remaining activity (% of control),[10],133.11 ± 4.29
H-YINR-OH [MRJP1 derived synthetic peptide],Cathepsin B remaining activity (% of control),[1],79.21 ± 2.12
same,Cathepsin B remaining activity (% of control),[2],142.33 ± 3.64
Ac-VNR-OH (Ac-Val-Asn-Arg-OH) [MRJP5 derived synthetic peptide],Cathepsin B remaining activity (% of control),[7],68.49 ± 8.73
same,Cathepsin B remaining activity (% of control),[8],99.83 ± 3.40
Ac-NQKN-OH [synthetic peptide derived from the C-terminus of MRJP2],Cathepsin B remaining activity (% of control),"Table 2, peptides from C-terminus of MRJP2, 2 mM MGO-modified peptide",102.36 ± 6.36
same,Cathepsin B remaining activity (% of control),"Table 2, peptides from C-terminus of MRJP2, 2 mM unmodified peptide",282.39 ± 19.66
Ac-PFKI-OH [synthetic peptide derived from the C-terminus of MRJP1],Cathepsin B remaining activity (% of control),[9],91.45 ± 0.11
same,Cathepsin B remaining activity (% of control),[10],152.05 ± 13.20
H-MDR-OH (H-Met-Asp-Arg-OH) [MRJP5 derived synthetic peptide],Cathepsin B remaining activity (% of control),[7],74.46 ± 0.97
same,Cathepsin B remaining activity (% of control),[8],101.73 ± 2.37
Ac-TDK-OH (Ac-Thr-Asp-Lys-OH) [MRJP5 derived synthetic peptide],Cathepsin B remaining activity (% of control),[7],92.75 ± 2.41
same,Cathepsin B remaining activity (% of control),[8],100.51 ± 10.69
H-VNR-OH (H-Val-Asn-Arg-OH) [MRJP5 derived synthetic peptide],Cathepsin B remaining activity (% of control),[7],82.63 ± 7.88
same,Cathepsin B remaining activity (% of control),[8],97.75 ± 10.62
"Ac-LIR-OH (Ac-Leu-Ile-Arg-OH) [synthetic peptide derived from MRJP2, 4 (see Leu408)]",Cathepsin B inhibition after MGO modification,MGO-modified synthetic peptides,particularly potent activity
same,Cathepsin B remaining activity (% of control),[3],0.07
same,Cathepsin B remaining activity (% of control),[4],128.28 ± 2.50
H-MDK-OH (H-Met-Asp-Lys-OH) [MRJP5 derived synthetic peptide],Cathepsin B remaining activity (% of control),[7],70.62 ± 12.34
same,Cathepsin B remaining activity (% of control),[8],104.25 ± 2.73
H-LQK-OH (H-Leu-Gln-Lys-OH) [MRJP5 derived synthetic peptide],Cathepsin B remaining activity (% of control),[7],95.26 ± 5.54
same,Cathepsin B remaining activity (% of control),[8],102.47 ± 4.27
